Earlier results in paper PMC3749792.

Tests used:
Assay in all cases: NMR
Conditions in all cases: RNase T1, presumably free unmodified enzyme (not stated explicitly)
[1] = target: His92 (UniProt position 118, AGVITHTGASG)
[2] = target: His40 (UniProt position 66, SNSYPHKYNNY)
[3] = target: His27 (UniProt position 53, AGYQLHEDGET)

Ribonuclease T1 (RNase T1) (Aspergillus oryzae)
pKa [1]: 7.80
pKa [2]: 7.92
pKa [3]: 7.26
